These results are taken from publication PMC5444726, “A CD44-specific peptide, RP-1, exhibits capacities of assisting diagnosis and predicting prognosis of gastric cancer” (Oncotarget, 2017).

Data set [1] concerns SGC-7901 cells. The class given is cell-based, human. The following applies: 200 µM.
The next data set relates to BGC-823 cells. The class given is cell-based, human. The following applies: 200 µM.
The subject of data set [2] is human gastric epithelial cell line GES-1. The class given is cell-based. The following applies: 200 µM.
The next data set has as its system nude mice. The data set can be described thus: In vivo toxicity in nude mice (body weight, H&E staining). The following applies: 1 mg/kg i.v., one week.
For data set [3], the system named is SGC-7901 cells. In words: Binding affinity to gastric cancer cells (fluorescence saturation). More on the design: species or system human. The following applies: FITC-labeled peptide, 0 to 2.5 μM at 0.25 μM intervals, serum-free RPMI 1640, ambient temperature, 15 min, microplate reader; least squares fit, R^2 = 0.98; read-out: equilibrium dissociation constant (Kd). As to the method:
5 × 10^5 SGC-7901 cells were inoculated into each well of a multi-well plate 24h before measurement. Both FITC- RP-1 and FITC-WYP peptide were serially diluted with RPMI 1640 culture medium containing no serum at concentrations ranged from 0 to 2.5 μM at 0.25 μM intervals, and incubated with SGC-7901 cells at ambient temperature for 15 min [40]. After washing twice with pre-cold PBS/0.2% Tween-20 solution, the unbound peptide was rinsed off, and cells were subsequently fixed in 4% paraformaldehyde at ambient temperature for 20 min. […] The equilibrium dissociation constant (Kd) was calculated using a least squares fit of the data with Origin 8.0 software (OriginLab, Massachusetts, USA). I was calculated using the Michaelis-Menten equation I = Imax([X])/(Kd+[X]), in which Imax was the maximum fluorescent intensity corresponding to peptide binding at saturation, which was calculated from the plots; I was the fluorescent intensity measured above; [X] was the concentration of total peptides and estimated to be the concentration of unbound peptide.

The subject of another data set is MKN-28 cells. It is filed as cell-based, human. The following applies: 200 µM.
The test system of the next data set is SGC-7901 tumor tissue. In words: Fluorescence microscopy of frozen xenograft sections after injection. To be noted: 3 h after i.v. injection of peptide. It is filed as in vivo, athymic nude mice. As to the method:
Once fluorescence signal reached its peak at the site of tumor, subcutaneous tumor tissues were harvested for further experiment. After shock-frozen with liquid nitrogen, tumor tissues were cut into 5 μm sections and fixed in 4% paraformaldehyde at ambient temperature for 30 min. The coverslips were mounted with glycerol–gelatin containing anti-fading buffer (Bioworld, Minnesota, USA). Finally, the fluorescence images of frozen sections were captured with a fluorescent microscope (Nikon-Eclipse, Tokyo, Japan)

For data set [4], the system named is CD44 on MKN-28-CD44-ox cells. The data set can be described thus: Confocal immunofluorescence of peptide binding to CD44-overexpressing MKN-28 cells. The class given is cell-based, human. The following applies: 100 μM Alexa Fluor 594 labeled peptide, 20 min, fixed cells, confocal microscopy. As to the method:
Plasmids containing cDNA of CD44 protein were synthesized by GENECHEM, Shanghai, China. Using Pfu polymerase and two oligonucleotides ([…] and […]), the CD44 cDNA was cloned into Xhol and ECOR1 sites of GV146 (GENECHEM, Shanghai, China) by recombinant PCR. Then, CD44-negative MNK-28 cells were transfected with the plasmid with Lipofectamine 2000 reagent (Invitrogen, California, USA), and then the efficiency of CD44 expression in MKN-28 cells was tested. Finally, two cell lines were generated as following: MKN-28-con with no CD44 expression and MKN-28-CD44-ox with CD44 overexpression labeled with enhanced green fluorescent protein (EGFP).
For the preparation of confocal laser microscopy, the transfected MNK-28 cancer cells were washed with phosphate buffer saline (PBS) three times, then fixed with 4% paraformaldehyde at ambient temperature for 30 min, and blocked with 5% BSA (w/v) in PBS at 37°C for 1 h. The blocked cells were sequentially incubated with 100 μM RP-1 or WYP labeled with Alexa Fluor 594 for 20 min, and counterstained with 4,6-diamidino-2-phenylindole (DAPI). […] For the evaluation of the correlation of fluorescent intensities between CD44-EGFP and RP-1-Fluor 594, a semi-quantitative analysis was performed with ImageJ 1.48v software (National Institutes of Health, Maryland, USA) by randomly selecting and observing 10 fields of vision. […]

Peptide text beside a SMILES is read from it. * marks the point of attachment. FITC = O=C1OC2(c3ccc(O)cc3Oc3cc(O)ccc32)c2ccc(NC(=S)*)cc21

Method for nude mice: All animal procedures were approved by the Ethics Committee of Xi’an Jiaotong University and conducted in accordance with the Helsinki Declaration (1975). Athymic nude mice (male, 4–5 weeks old, with a body weight of 20–25 g) were obtained from the Animal Experiment Center of Xi’an Jiaotong University, Xi’an, China. The SGC-7901 tumor xenografts were generated by subcutaneous injection of 5–8 × 10^6 SGC-7901 cells suspended in 200 μL culture medium into the left axilla of mice. The cells were allowed to grow for 2 weeks until tumor volume reached an estimate of 1 cm^3.
Cell Counting Kit-8 (CCK-8, Beyotime, Shanghai, China) assay and animal experiments were performed to evaluate the in vitro and in vivo toxicity of RP-1 peptide, respectively. For CCK-8 assay, 5 × 10^3 MKN-28, SGC-7901, BGC-823 and GES-1 cells in 100 μL culture medium were incubated into each well of a 96-well plate 24 h before peptide was added. All cells were incubated with FITC-RP-1 0.064 to 200 μM. After incubation for 24 h, 48 h or 72 h, 10 μL CCK-8 reagent were added into each well and further incubated for 3 h. Then, the absorbance at 450 nm was measured with a microplate reader (Bio-Rad, Hercules, CA, USA). In animal experiments, FITC-RP-1 or PBS 1 mg/kg was intravenously injected via the tail vein. The body weight of nude mice was measured every day. […]

What is called cell viability is the share of living cells, or the viability signal relative to a control. Read a high cell viability as better survival. Broadly, the Kd is the free concentration of one partner at which half of the binding sites on the other are occupied at equilibrium, for simple one-to-one binding. Take `CC(C)C[C@H](NC(=O)[C@H](Cc1ccc(O)cc1)NC(=O)[C@H](CO)NC(=O)[C@H](Cc1c[nH]c2ccccc12)NC(=O)[C@@H]1CCCN1C(=O)[C@H](Cc1c[nH]cn1)NC(=O)[C@H](Cc1c[nH]c2ccccc12)NC(=S)Nc1ccc2c(c1)C(=O)OC21c2ccc(O)cc2Oc2cc(O)ccc21)C(=O)N[C@@H](Cc1c[nH]c2ccccc12)C(=O)N[C@H](C(=O)N[C@@H](CCC(N)=O)C(=O)N[C@@H](CCC(N)=O)C(=O)N[C@@H](C)C(=O)O)[C@@H](C)O` [FITC-RP-1] ({FITC}-WHPWSYLWTQQA-OH; N-terminus and C-terminus assumed): the cell viability is given as over 86% in the data set with SGC-7901 cells [1], over 84% in the data set with BGC-823 cells, over 91% in data set [2] and “more than 85%” in the data set with MKN-28 cells. The toxicity in vivo entry with nude mice is “low toxicity in vivo”. Besides, the Kd in the data set with SGC-7901 cells [3] was 135 nM.

For “WYPLAHWQTSWQ [scrambled control peptide … consisting of the same amino acids as RP-1, reference compound]”, the “fluorescence on tumor cells in frozen sections” value in the data set with SGC-7901 tumor tissue is given as “No fluorescence signal was detected”. Moreover, the “binding of peptide to CD44 on the cell membrane” value in data set [4] is listed as “No fluorescent signal was detected”.
